Measured values published in US20150353933, “APTAMER AGAINST MIDKINE AND APPLICATIONS THEREOF” (RIBOMIC INC., published 2015).
Numbering of substitutions follows the chain as printed.

T1: midkine (AP-MK) (Homo sapiens, UniProt P21741 P21741:23-143)
T1 chain: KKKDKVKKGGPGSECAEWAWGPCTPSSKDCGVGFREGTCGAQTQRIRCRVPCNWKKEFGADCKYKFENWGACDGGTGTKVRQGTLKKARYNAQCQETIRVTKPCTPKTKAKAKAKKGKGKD

T2: midkine (MK) (Homo sapiens, UniProt P21741 P21741:21-143)
T2 sequence: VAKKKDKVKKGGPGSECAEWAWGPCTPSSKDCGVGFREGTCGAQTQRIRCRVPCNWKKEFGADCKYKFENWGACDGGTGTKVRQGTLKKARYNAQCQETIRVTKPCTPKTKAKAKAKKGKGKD

B1: SEQ ID NO: 7-1 (ssRNA)
RNA: GCCAUCGCAAUGGUGAGUGGUUUAUCCGCCUGCGCAUGGC
modifications: 2'-OMe at 1-3 and 38-40; 2'-F at all other pyrimidines; other purines 2'-OH
B2: SEQ ID NO: 7-2 (ssRNA)
RNA: B1 RNA
modifications: 5' 40PEG2ts; 3' idT; 2'-OMe at 1-3 and 38-40; 2'-F at all other pyrimidines
B3: SEQ ID NO: 7-3 (ssRNA)
RNA: B1 RNA
modifications: 5' 40PEG2ts; 3' idT; 2'-OMe at 1-13,19,20,23,28,30-40; 2'-F at U14,U18,U21,U22,U25,C26,C27,C29; 2'-OH at G15,A16,G17,A24
B4: SEQ ID NO: 7-4 (ssRNA)
RNA: B1 RNA
modifications: 5' 40PEG2ts; 3' idT; 2'-OMe at C2,C3,C40 and all purines except G15,A16,G17,A24 (2'-OH); 2'-F at all other pyrimidines
B5: SEQ ID NO: 9 (mixed)
RNA: GCCAUCGCAAUGGUGAGUGGUUUAUCCGCCUGCGCAUGGCAAAAAAAAAAAAAAAA
modifications: 2'-OMe at 1-3 and 38-40; 2'-F at all other pyrimidines; 3' 16-nt poly dA (DNA)
B6: SEQ ID NO: 9-4 (mixed)
RNA: B5 RNA
modifications: 2'-OMe at C2,C3,C40 and RNA purines except G15,A16,A24 (2'-OH); 2'-F at all other pyrimidines; 3' 16-nt poly dA (DNA)
B7: SEQ ID NO: 9-2 (mixed)
RNA: B5 RNA
modifications: 2'-OMe at C2,C3,C40 and RNA purines except A16,G17,A24 (2'-OH); 2'-F at all other pyrimidines; 3' 16-nt poly dA (DNA)
B8: SEQ ID NO: 9-1 (mixed)
RNA: B5 RNA
modifications: 2'-OMe at C2,C3,C40 and RNA purines except G15,A16,G17,A24 (2'-OH); 2'-F at all other pyrimidines; 3' 16-nt poly dA (DNA)
B9: SEQ ID NO: 9-3 (mixed)
RNA: B5 RNA
modifications: 2'-OMe at C2,C3,C40 and RNA purines except G15,G17,A24 (2'-OH); 2'-F at all other pyrimidines; 3' 16-nt poly dA (DNA)
B10: SEQ ID NO: 9-5 (mixed)
RNA: B5 RNA
modifications: 2'-OMe at C2,C3,C40 and RNA purines except G15,A16,G17 (2'-OH); 2'-F at all other pyrimidines; 3' 16-nt poly dA (DNA)
B11: SEQ ID NO: 10 (ssRNA)
RNA: GCUCGCAAUGGUGAGUGGUUUAUCCGCCUGCGCAGC
modifications: 3' idT; 2'-OMe at 1-11,17,18,21,26,28-36; 2'-F at U12,U16,U19,U20,U23,C24,C25,C27; 2'-OH at G13,A14,G15,A22
B12: SEQ ID NO: 12 (ssRNA)
RNA: CGCAAUGGUGAGUGGUUUAUCCGCCUGCG
modifications: 3' idT; 2'-OMe at 1-8,14,15,18,23,25-29; 2'-F at U9,U13,U16,U17,U20,C21,C22,C24; 2'-OH at G10,A11,G12,A19
B13: SEQ ID NO: 7-7 (ssRNA)
RNA: B1 RNA
modifications: 3' idT; 2'-OMe at 1-13,16,19,20,23,27,28,30-40; 2'-F at U14,U18,U21,U22,U25,C26,C29; 2'-OH at G15,G17,A24
B14: SEQ ID NO: 7-8 (ssRNA)
RNA: B1 RNA
modifications: 3' idT; 2'-OMe at 1-13,16,19,20,23,28-40; 2'-F at U14,U18,U21,U22,U25,C26,C27; 2'-OH at G15,G17,A24
B15: SEQ ID NO: 7-6 (ssRNA)
RNA: B1 RNA
modifications: 3' idT; 2'-OMe at 1-14,16,19,20,23,28,30-40; 2'-F at U18,U21,U22,U25,C26,C27,C29; 2'-OH at G15,G17,A24
B16: SEQ ID NO: 7-5 (ssRNA)
RNA: B1 RNA
modifications: 3' idT; 2'-OMe at 1-13,16,19,20,23,28,30-40; 2'-F at U14,U18,U21,U22,U25,C26,C27,C29; 2'-OH at G15,G17,A24
B17: SEQ ID NO: 7-9 (ssRNA)
RNA: B1 RNA
modifications: 3' idT; 2'-OMe at 1-13,16,17,19,20,23,28,30-40; 2'-F at U14,U18,U21,U22,U25,C26,C27,C29; 2'-OH at G15,A24
B18: SEQ ID NO: 11 (ssRNA)
RNA: GCGCAAUGGUGAGUGGUUUAUCCGCCUGCGC
modifications: 3' idT; 2'-OMe at 1-10,12,15,16,19,24,26-31; 2'-F at U14,U17,U18,U21,C22,C23,C25; 2'-OH at G11,G13,A20
B19: SEQ ID NO: 11-1 (ssRNA)
RNA: B18 RNA
modifications: 3' idT; 2'-OMe at 1-10,12,15,16,19,23-31; 2'-F at U14,U17,U18,U21,C22; 2'-OH at G11,G13,A20
B20: SEQ ID NO: 1 (ssRNA)
RNA: GGGAGAGGAGAAGAGGAAGCUAUCGCAAUGGUGAGUGGUUUAUCCGCCUGCGCAUGGUUAGAGGACAGGAAUGAGGA
modifications: 2'-F pyrimidines; 16-nt poly A at 3' end for SPR
B21: SEQ ID NO: 8-5 (ssRNA)
RNA: GUCUGUGUGGUUUAUCCGGAC
modifications: 5' 80PEG4gs; 3' idT; 2'-OMe at 1-3,8-10,13,18-21; 2'-F at U4,U6,U11,U12,U15,C16,C17; 2'-OH at G5,G7,A14
B22: SEQ ID NO: 8-1 (ssRNA)
RNA: GUCUGUGUGGUUUAUCCGGAC
modifications: 2'-OMe at G1,G9,G10,U13,G18,G19,A20; 2'-F at all other pyrimidines; 2'-OH at G5,G7,A14
B23: SEQ ID NO: 8-2 (ssRNA)
RNA: GUCUGUGUGGUUUAUCCGGAC
modifications: 5' 80PEG4ts; 3' idT; 2'-OMe at G1,G9,G10,U13,G18,G19,A20; 2'-F at other pyrimidines except C21 (unmodified as printed); 2'-OH at G5,G7,A14
B24: SEQ ID NO: 8-3 (ssRNA)
RNA: GUCUGUGUGGUUUAUCCGGAC
modifications: 5' 80PEG4gs; 3' idT; 2'-OMe at G1,G9,G10,U13,G18,G19,A20; 2'-F at other pyrimidines except C21 (unmodified as printed); 2'-OH at G5,G7,A14
B25: SEQ ID NO: 8-4 (ssRNA)
RNA: GUCUGUGUGGUUUAUCCGGAC
modifications: 5' 80PEG4ts; 3' idT; 2'-OMe at 1-3,8-10,13,18-21; 2'-F at U4,U6,U11,U12,U15,C16,C17; 2'-OH at G5,G7,A14
B26: SEQ ID NO: 2 (ssRNA)
RNA: GGGACACAAUGGACGUCUGUGUGGUUUAUCCGGAUGUCCGUCGUCCUCUGUCAUGUAACGGCCGACAUGAGAG
modifications: 2'-F pyrimidines; 16-nt poly A at 3' end for SPR
B27: SEQ ID NO: 6 (ssRNA)
RNA: B26 RNA with U35C, A53G
modifications: 2'-F pyrimidines; 16-nt poly A at 3' end for SPR
B28: SEQ ID NO: 3 (ssRNA)
RNA: B26 RNA with A53G
modifications: 2'-F pyrimidines; 16-nt poly A at 3' end for SPR
B29: SEQ ID NO: 4 (ssRNA)
RNA: B26 RNA with U51C
modifications: 2'-F pyrimidines; 16-nt poly A at 3' end for SPR
B30: SEQ ID NO: 5 (ssRNA)
RNA: B26 RNA with U49G
modifications: 2'-F pyrimidines; 16-nt poly A at 3' end for SPR
B31: SEQ ID NO: 8 (ssRNA)
RNA: GUCUGUGUGGUUUAUCCGGAC
modifications: 2'-F pyrimidines
B32: SEQ ID NO: 7 (ssRNA)
RNA: B1 RNA
modifications: 2'-F pyrimidines

Molecular target: T1, midkine (AP-MK)
Assay: inhibition; AP-MK binding to TNB1 cells
Settings: tags: alkaline phosphatase fusion, APtag-5 vector (GenHunter), 293T culture supernatant
Experimental: (§1) Using the above-mentioned AP-MK, a binding inhibitory experiment relative to TNB1 cell, which is a human neuroblastoma cell, was performed. TNB1 cells were seeded at 1×10⁵ cells/well on a 6-well plate coated with collagen I. The next day, the cells were washed with 1 mL of HBHA (HBSS+0.5 mg/mL BSA+20 mM HEPES pH 7.0), 1 U/mL AP or AP-MK, and further, the aptamer shown in SEQ ID NO: 7-1 at a final concentration of 100 nM were added and the mixture was maintained at room temperature for 90 min. After washing 5 times with 1 mL of HBHA, 200 μL of Cell Lysis Buffer (manufactured by GenHunter) was added and the mixture was stirred for 5 min. The cells were scraped with a Scraper and placed in an Eppendorf tube, vortexed for 10 sec and centrifuged at 15000 rpm for 2 min. The supernatant was recovered, and heated at 65° C. for 10 min to inactivate endogenous AP. Using 50 μL, color development was performed in the same manner as above (15 min) and the activity of AP was calculated.
(§2) An altered form of SEQ ID NO: 7-1 was produced, and AP-MK binding inhibitory experiment was performed using HepG2 and TNB1 cells and in the same manner as above. The sequences of the altered forms actually produced are shown below. While Poly dA for BIAcore measurement is added to the 3′-terminus of the aptamers shown in SEQ ID NO: 9 and SEQ ID NO: 9-1-5, an influence on the activity is not expected. The 50% inhibitory concentration (IC₅₀) was determined from the concentrations at two, above and below points sandwiching the 50% inhibitory activity (Table 2).

Row | Binder | IC50
1 | B1 | 18 nM
2 | B2 | 26 nM
3 | B3 | 11 nM
4 | B4 | 18 nM

Molecular target: T1, midkine (AP-MK)
Assay: inhibition; AP-MK binding to HepG2 cells
Settings: tags: alkaline phosphatase fusion, APtag-5 vector (GenHunter), 293T culture supernatant
Experimental: as §1, §2

Row | Binder | IC50
5 | B5 | 3.3 nM
6 | B6 | 4.1 nM
7 | B7 | 13 nM
8 | B8 | 1.6 nM
9 | B9 | 3 nM
10 | B10 | 19 nM
11 | B11 | < 2 nM
12 | B12 | < 2 nM
13 | B1 | 6 nM
14 | B13 | < 2 nM
15 | B14 | < 2 nM
16 | B2 | 4.9 nM
17 | B15 | < 2 nM
18 | B3 | 1.7 nM
19 | B16 | < 2 nM
20 | B4 | 3.6 nM
21 | B17 | 4.7 nM
22 | B18 | 6.3 nM
23 | B19 | 7.8 nM

These binders were tested against T2, midkine (MK) (assay: SPR; strongly binds; 0.5 uM MK analyte; solution A (Na, K, Ca, Mg, Tris pH 7.6)). Settings: tags: produced in yeast.
Experimental: (§3) The binding activities of the oligonucleotides shown by SEQ ID NO:1 to 6 obtained in Examples 1 and 2 for MK were evaluated by a surface plasmon resonance method. The measurements were performed using BIAcore2000, manufactured by BIAcore. The sensor chip used was the SA chip, which had streptavidin immobilized thereon. Bound thereto was about 1000 RU of a 16-nucleotide Poly dT with biotin bound to the 5′ end thereof. […] 70 μL of MK for analyte, prepared at 0.5 μM, was injected.

Row | Binder | binding result
24 | B20 | binds

Molecular target: T1, midkine (AP-MK)
Assay: inhibition; AP-MK binding to HepG2, 500 nM aptamer
Settings: tags: alkaline phosphatase fusion, APtag-5 vector (GenHunter), 293T culture supernatant
Experimental: as §1
An experiment similar to the above was performed using HepG2 cells which are human liver cancer-derived cells. It is already known that MK is deeply involved in the growth and inhibition of apoptosis of HepG2 cells (Ohuchida et al., Cancer 100, 2430-2436, 2004; Dai et al., World J. Gastroenterol. 15, 1966-1972, 2009). When the aptamer was added to the system, the binding of AP-MK and HepG2 was inhibited (Table 1).

Row | Binder | activity
25 | B21 | 61 % inhibition
26 | B22 | 76 % inhibition
27 | B23 | 61 % inhibition
28 | B24 | 65 % inhibition
29 | B25 | 58 % inhibition
30 | B1 | 93 % inhibition

What follows are binders tested against T2, midkine (MK) (assay: SPR; strongly binds; 0.5 uM MK analyte; solution A). Settings: tags: produced in yeast.
Experimental: as §3

Row | Binder | binding result
31 | B26 | binds
32 | B27 | binds
33 | B28 | binds
34 | B29 | binds
35 | B30 | binds

The binders below were run against T2, midkine (MK) (assay: SPR; confirmed MK binding, as in Example 3). Settings: tags: produced in yeast.
Experimental: as §3
Those aptamers were evaluated by the surface plasmon resonance method in the same manner as in Example 3, and they were confirmed to have MK binding activity.

Row | Binder | binding result
36 | B31 | binds
37 | B21 | binds
38 | B22 | binds
39 | B23 | binds
40 | B24 | binds
41 | B25 | binds
42 | B1 | binds
43 | B32 | binds
